T1: PF4/heparin complex (human PF4 complexed with heparin) (human, UniProt P02776 32-101)
T1 construct: Multimeric complex of PF4 with heparin (not a protein); In the EIAs: PF4 captured on biotinylated heparin on streptavidin plates; In the SRA: platelets with 0.2 U/mL heparin; also called PF4 and heparin complexes
T1 sequence: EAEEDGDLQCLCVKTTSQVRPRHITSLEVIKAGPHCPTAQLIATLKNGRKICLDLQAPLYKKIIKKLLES

T2: Human PF4 (CXCL4), biotinylated, without heparin (human, UniProt P02776 32-101, biotinylated with EZ-link-Sulfo-NHS-LC-Biotin (sites not given))
T2 construct: Immobilised on streptavidin biosensors for BLI; also called PF4 alone; platelet factor 4
T2 sequence: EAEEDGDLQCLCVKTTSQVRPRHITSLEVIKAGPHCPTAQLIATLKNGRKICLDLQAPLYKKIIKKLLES


Assays:
[1] = molecular target: T1, PF4/heparin complex (human PF4 …); assay: BLI (Octet), biotinylated PF4/heparin on streptavidin sensors, scFv 1 µg/mL, 1:1 model
Procedure: (§1) The Octet-QK Red 96 (FortéBio, Menlo Park, CA) instrumentation was used to conduct all BLI experiments. A 96-well microtiter plate (black, flat-bottom) was used to hold 200 μL per well of either sample or buffer. Pre-coated streptavidin biosensor tips (FortéBio) were hydrated in phosphate buffered saline (PBS) containing 1% bovine serum albumin (BSA, Sigma-Aldrich) before performing all kinetic assays. Each step was performed at an operating temperature of 23° C. with agitation at 1000 rpm. Streptavidin tips were first equilibrated in PBS+1% BSA to establish a baseline. […] The PF4-coated tips were then dipped into PBS+1% BSA for 13 minutes to re-establish a baseline. Tips were then incubated in an analyte solution containing half-fold dilutions of wildtype scFv (4.0, 2.0, 1.0, 0.5, 0.25 μg/mL in PBS+1% BSA) for 10 minutes to measure association. For mutant scFv association, tips were incubated in an analyte solution containing 200 μL of each mutant and wildtype scFv at a final concentration of 1 μg/mL in PBS+1% BSA. Antibody dissociation steps were performed by dipping sensors in wells containing PBS+1% BSA for 56 minutes. The following negative controls included in these kinetic experiments were also measured: 200 μL of buffer to replace both the antigen and scFv and 200 μL buffer replacing scFv only. Each experiment was performed with PF4 or with PF4/heparin as the immobilized antigen.
(§2) BLI experiments were performed to evaluate binding responses and affinities of wildtype and mutant scFv. Biotinylated PF4 alone or complexed with heparin was immobilized on streptavidin biosensors and used to capture wildtype scFv. Half-fold serial dilutions of wildtype scFv ranging from 0.25 μg/mL to 4 μg/mL were used to determine the optimal concentrations for future experiments PF4 (PF4 FIG. 3; PF4/heparin FIG. 4).

[2] = molecular target: T2, Human PF4 (CXCL4), biotinylated, …; assay: BLI (Octet), biotinylated PF4 without heparin on streptavidin sensors, scFv 1 µg/mL, 1:1 model
Procedure: as §1, §2

[3] = molecular target: T1, PF4/heparin complex (human PF4 …); assay: cell-based or functional assay
[4] = molecular target: T2, Human PF4 (CXCL4), biotinylated, …; assay: BLI (Octet), biotinylated PF4 without heparin on streptavidin sensors, scFv at 1 µg/mL, 1:1 model, mean ± s.d. [cont.) b]
Procedure: BLI experiments were performed using wildtype scFv, mutant B, mutant C, mutant D, mutant E, and mutant F at 1 μg/mL. Binding was measured against immobilized biotinylated PF4 on streptavidin biosensors. b) Table showing kinetic data of wildtype and mutant scFv, including binding responses and association and dissociation rates. All data was analyzed based on a 1:1 homogenous ligand binding model using Octet® User Software version 3.1.
as §1
(§3) BLI experiments were performed to evaluate binding responses and affinities of wildtype and mutant scFv. Biotinylated PF4 alone or complexed with heparin was immobilized on streptavidin biosensors and used to capture wildtype scFv.

[5] = molecular target: T1, PF4/heparin complex (human PF4 …); assay: BLI (Octet), biotinylated PF4/heparin on streptavidin sensors, scFv at 1 µg/mL, 1:1 model, mean ± s.d.
Procedure: BLI experiments were performed using wildtype scFv, mutant B, mutant C, mutant D, mutant E, and mutant F at 1 μg/mL. Binding was measured against immobilized biotinylated PF4/heparin complexes on streptavidin biosensors. b) Table showing kinetic data of wildtype and mutant scFv, including binding responses and association and dissociation rates. All data was analyzed based on a 1:1 homogenous ligand binding model using Octet®) User Software version 3.1.
as §1, §3

[6] = molecular target: T1, PF4/heparin complex (human PF4 …); assay: competition EIA, scFv 50 µg/mL; competitor HIT-negative sera antibodies, n=10

| Binder | Kd [1] | Kd [2] | % inhibition of 14C-serotonin release (SRA), HIT-Positive Patient #1 serum, scFv 50 µg/mL [3] | % inhibition of 14C-serotonin release (SRA), HIT-Positive Patient #1 serum, scFv 75 µg/mL [3] | % inhibition of 14C-serotonin release (SRA), HIT-Positive Patient #2 serum, scFv 50 µg/mL [3] | % inhibition of 14C-serotonin release (SRA), HIT-Positive Patient #2 serum, scFv 75 µg/mL [3] | % inhibition of 14C-serotonin release (SRA), HIT-Positive Patient #3 serum, scFv 50 µg/mL [3] | % inhibition of 14C-serotonin release (SRA), HIT-Positive Patient #3 serum, scFv 75 µg/mL [3] | % inhibition of 14C-serotonin release (SRA), HIT-Positive Patient #4 serum, scFv 50 µg/mL [3] | % inhibition of 14C-serotonin release (SRA), HIT-Positive Patient #4 serum, scFv 75 µg/mL [3] | % inhibition of 14C-serotonin release (SRA), HIT-Positive Patient #5 serum, scFv 50 µg/mL [3] | % inhibition of 14C-serotonin release (SRA), HIT-Positive Patient #5 serum, scFv 75 µg/mL [3] | koff [4] | kon [4] | koff [5] | kon [5] | mean % inhibition of serum antibody binding [6] | fold stronger affinity than wildtype scFv [1] | fold stronger affinity than wildtype scFv [2] | other results |
| --- | --- | --- | --- | --- | --- | --- | --- | --- | --- | --- | --- | --- | --- | --- | --- | --- | --- | --- | --- | --- |
| Mutant B scFv, scFv(R18K, N152K, D180N) (scFv, VL-linker-VH; histidine-tagged, from E. coli BL21; also called Mut B; not shown: histidine tag from the pADL-22c vector) scFv: DIQMIQSQKFMSTSVGDKVTVTCKASQNVGTNVAWYQQKPGQSPNALIYSASYRYSGVPDRFTGSGSGTDFTLTITNVQSEDLADYFCQQYNSYPLTFGTGTKLDLKGGGGSGGGGSGGGGSVQLQQSGAELVKPGASVKLSCKASGYTFTKYFIYWVKQRPGQGLEWIGEINPRNGDTNFNEKFESRATLTVDKSSSTAYMQLSSLTSEDSAIYYCTRSPYGNNYGFTYWGQGTLVTVSA | 1.36 nM | 1.69 nM | 71.1% | 97.8% | 71.8% | 19.2% | 6% | 14.5% | 7.8% | 58.9% | 90.3% | 80.6% | 5.07e-05 s⁻¹ | 30200 M⁻¹ s⁻¹ | 3.91e-05 s⁻¹ | 27600 M⁻¹ s⁻¹ | -31.4% |  |  | fold change of KD against wildtype scFv [1]: 100 fold; fold change of KD against wildtype scFv [2]: 1000 fold |
| Mutant F scFv, scFv(E183V, E186K, G223R) (scFv, VL-linker-VH; histidine-tagged, from E. coli BL21; also called Mut F; not shown: histidine tag from the pADL-22c vector) scFv: DIQMIQSQKFMSTSVGDRVTVTCKASQNVGTNVAWYQQKPGQSPNALIYSASYRYSGVPDRFTGSGSGTDFTLTITNVQSEDLADYFCQQYNSYPLTFGTGTKLDLKGGGGSGGGGSGGGGSVQLQQSGAELVKPGASVKLSCKASGYTFTNYFIYWVKQRPGQGLEWIGEINPRNGDTDFNVKFKSRATLTVDKSSSTAYMQLSSLTSEDSAIYYCTRSPYRNNYGFTYWGQGTLVTVSA | 0.292 nM | 0.607 nM | 97.8% |  | 21.8% |  | 50.6% |  | 50% |  | 90.3% |  | 2.52e-05 s⁻¹ | 42200 M⁻¹ s⁻¹ | 1.41e-05 s⁻¹ | 50900 M⁻¹ s⁻¹ | -57% |  |  |  |
| Mutant D scFv, scFv(Y156H) (scFv, VL-linker-VH; histidine-tagged, from E. coli BL21; also called Mut D; not shown: histidine tag from the pADL-22c vector) scFv: DIQMIQSQKFMSTSVGDRVTVTCKASQNVGTNVAWYQQKPGQSPNALIYSASYRYSGVPDRFTGSGSGTDFTLTITNVQSEDLADYFCQQYNSYPLTFGTGTKLDLKGGGGSGGGGSGGGGSVQLQQSGAELVKPGASVKLSCKASGYTFTNYFIHWVKQRPGQGLEWIGEINPRNGDTDFNEKFESRATLTVDKSSSTAYMQLSSLTSEDSAIYYCTRSPYGNNYGFTYWGQGTLVTVSA | 3.77 nM | 5.83 nM | 42.2% | 94.4% | 12.8% | 16.7% | 10.8% | 36.1% | 20% | 38.9% | 69.4% | 87.5% | 0.000103 s⁻¹ | 25700 M⁻¹ s⁻¹ | 3.47e-05 s⁻¹ | 12900 M⁻¹ s⁻¹ | -17.3% | 100 fold | 1000 fold |  |
| Mutant E scFv, scFv(Y156H, D180G, Q233P) (scFv, VL-linker-VH; histidine-tagged, from E. coli BL21; also called Mut E; not shown: histidine tag from the pADL-22c vector) scFv: DIQMIQSQKFMSTSVGDRVTVTCKASQNVGTNVAWYQQKPGQSPNALIYSASYRYSGVPDRFTGSGSGTDFTLTITNVQSEDLADYFCQQYNSYPLTFGTGTKLDLKGGGGSGGGGSGGGGSVQLQQSGAELVKPGASVKLSCKASGYTFTNYFIHWVKQRPGQGLEWIGEINPKNGDTGFNEKFESRATLTVDKSSSTAYMQLSSLTSEDSAIYYCTRSPYGNNYGFTYWGPGTLVTVSA | 0.275 nM | 0.954 nM | 14.4% | 25.6% | 9% | 10.3% | 14.5% | 9.6% | 6.7% | 4.4% | 47.2% | 59.7% | 0.000124 s⁻¹ | 69300 M⁻¹ s⁻¹ | 2.78e-05 s⁻¹ | 79200 M⁻¹ s⁻¹ | -34% | 100 fold | 10000 fold |  |

Reference: patent US20250011413A1 (MCMASTER UNIVERSITY, published 2025)
